B1: Tyrosine-protein kinase Lck, residues 63 to 120; numbered along this chain, P06239 (parent)
chain: DNLVIALHSYEPSHDGDLGFEKGEQLRILEQSGEWWKAQSLTTGQEGFIPFNFVAKAN

± gives the uncertainty stated by the source.

In the data set the parent is B1. Briefly: abundance fitness (aPCA) (normalised: wild type 0, dead -1); higher = more abundant; growth selection in yeast, the domain comes from the species named. The conditions noted are these: Homo sapiens.
As to Q31C, the abundance fitness is -0.097 ± 0.15.
On to Q31L, for which the abundance fitness was -0.707 ± 0.1.
As for Q31P, the figure is -0.235 ± 0.15; as for Q31A, 0.032 ± 0.1; as for Q31W, -0.161 ± 0.11.
With Q31D, the abundance fitness was -0.011 ± 0.12.
The result for Q31R reads 0.054 ± 0.081; that for Q31Y, -0.234 ± 0.17.
For Q31V, the abundance fitness was -0.354 ± 0.11.
Regarding Q31E, the abundance fitness stood at 0.025 ± 0.12.
Turning to Q31H, the abundance fitness is -0.301 ± 0.17.
For the variant Q31F, the abundance fitness was -0.5 ± 0.15.
On to Q31T, for which the abundance fitness is -0.291 ± 0.12.
Turning to Q31I, the abundance fitness was -0.552 ± 0.26.
As for Q31K, the abundance fitness turned out to be 0.003 ± 0.17.
As for E46Q, the figure is -0.038 ± 0.11; as for E46L, -0.157 ± 0.077; as for E46P, -0.745 ± 0.15.
Take E46H: the abundance fitness was -0.448 ± 0.13.
The result for E46N reads -0.217 ± 0.16; that for E46V, 0.042 ± 0.083.
Consider E46G, for which the abundance fitness was -0.632 ± 0.076.
In the case of E46S, the abundance fitness worked out at 0.021 ± 0.091.
Take E46F: the abundance fitness was -0.294 ± 0.13.
E46M: the abundance fitness is -0.032 ± 0.11.
As for E46C, the figure is -0.023 ± 0.11.
On to E46I, for which the abundance fitness was determined as 0.131 ± 0.12.
In the case of E46W, the abundance fitness is -0.517 ± 0.1.
On to E46A, for which the abundance fitness was -0.024 ± 0.089.
E46R: the abundance fitness was -0.207 ± 0.068.
As to E46Y, the abundance fitness is -0.316 ± 0.12.
E46K: the abundance fitness was -0.05 ± 0.16.
With Q39G, the abundance fitness was -0.722 ± 0.095.
Q39T: the abundance fitness is -0.278 ± 0.11.
As for Q39S, the abundance fitness is -0.297 ± 0.092.
Turning to Q39I, the abundance fitness was -0.327 ± 0.17.
For Q39L, the abundance fitness was -0.312 ± 0.083.
As for Q39K, the abundance fitness is -0.042 ± 0.12.
For Q39A, the abundance fitness was -0.361 ± 0.12.
Take Q39D: the abundance fitness was -1.03 ± 0.35.
Take Q39W: the abundance fitness was -0.784 ± 0.12.
As for Q39C, the figure is -0.386 ± 0.13; as for Q39N, -0.868 ± 0.3.
As for Q39R, the figure is -0.017 ± 0.073.
As for Q39M, the abundance fitness was -0.179 ± 0.11.
On to Q39Y, for which the abundance fitness is -0.468 ± 0.14.
The result for Q39F reads -0.503 ± 0.2; that for Q39P, -0.843 ± 0.23; that for W35G, -0.303 ± 0.11.
Turning to W35C, the abundance fitness is -0.185 ± 0.15.
The result for W35Y reads -0.131 ± 0.2.
For the variant W35D, the abundance fitness is -0.444 ± 0.14.
W35L: the abundance fitness was -0.029 ± 0.081.
As to W35S, the abundance fitness is 0.002 ± 0.11.
As to W35R, the abundance fitness came to 0.091 ± 0.085.
As for W35A, the abundance fitness was -0.044 ± 0.095.
Turning to W35N, the abundance fitness was -0.128 ± 0.15.
For the variant W35M, the abundance fitness is 0.01 ± 0.12.
The result for W35H reads -0.081 ± 0.14; that for W35I, -0.049 ± 0.13.
As for W35Q, the figure is 0.069 ± 0.15; as for E34A, -0.065 ± 0.13.
Turning to E34W, the abundance fitness was -0.34 ± 0.091.
Turning to E34R, the abundance fitness was found to be 0.006 ± 0.07.
In the case of E34C, the abundance fitness is -0.276 ± 0.11.
In the case of E34N, the abundance fitness is -0.203 ± 0.16.
For E34H, the abundance fitness was -0.205 ± 0.14.
E34P: the abundance fitness was -0.183 ± 0.12.
As to E34Y, the abundance fitness was -0.026 ± 0.19.
For E34S, the abundance fitness was -0.054 ± 0.081.
As to E34F, the abundance fitness is -0.138 ± 0.2.
Consider E34Q, for which the abundance fitness was -0.149 ± 0.14.
Consider E34V, for which the abundance fitness was -0.076 ± 0.092.
As for E34L, the figure is -0.225 ± 0.078.
As to E34T, the abundance fitness is -0.092 ± 0.093.
In the case of E34M, the abundance fitness is -0.262 ± 0.1.
On to E34G, for which the abundance fitness was -0.13 ± 0.081.
E34I: the abundance fitness is -0.142 ± 0.17.
For L29M, the abundance fitness is -0.315 ± 0.14.
L29A: the abundance fitness was -0.645 ± 0.092.
As for L29I, the figure is -0.339 ± 0.18; as for L29W, -0.87 ± 0.2.
With L29C, the abundance fitness is -0.441 ± 0.15.
With L29G, the abundance fitness was -0.734 ± 0.089.
As for L29Q, the figure is -0.401 ± 0.18; as for L29Y, -0.227 ± 0.32.
Consider L29R, for which the abundance fitness was -0.591 ± 0.091.
Take L29D: the abundance fitness is -0.852 ± 0.18.
As for L29K, the figure is -0.325 ± 0.14; as for L29H, -0.184 ± 0.21.
For L29F, the abundance fitness is -0.527 ± 0.17.
Turning to L29T, the abundance fitness is -0.283 ± 0.097.
As for L29S, the abundance fitness was -0.44 ± 0.11.
For L29P, the abundance fitness was -1.05 ± 0.2.
Regarding R27Y, the abundance fitness is -0.193 ± 0.3.
In the case of R27W, the abundance fitness was -0.44 ± 0.15.
As to Q45R, the abundance fitness was -0.015 ± 0.065.
Take Q45H: the abundance fitness is -0.23 ± 0.21.
On to Q45F, for which the abundance fitness is -0.303 ± 0.18.
On to Q45W, for which the abundance fitness was -0.599 ± 0.091.
Regarding Q45M, the abundance fitness is -0.092 ± 0.11.
Regarding Q45V, the abundance fitness was -0.187 ± 0.1.
As for Q45P, the figure is -0.57 ± 0.16; as for Q45G, -0.308 ± 0.068; as for Q45K, -0.101 ± 0.15.
The result for Q45I reads -0.662 ± 0.42.
Regarding Q45L, the abundance fitness was -0.112 ± 0.087.
In the case of Q45C, the abundance fitness was -0.117 ± 0.11.
As for Q45S, the figure is -0.282 ± 0.098; as for Q45E, 0.001 ± 0.1; as for Q45T, -0.146 ± 0.11.
In the case of Q45D, the abundance fitness is -0.217 ± 0.15.
In the case of Q45N, the abundance fitness was -0.288 ± 0.23.
As for Q45A, the figure is -0.087 ± 0.09; as for S40M, -0.918 ± 0.17.
With S40G, the abundance fitness is -0.795 ± 0.087.
As to S40T, the abundance fitness is -0.484 ± 0.14.
In the case of S40R, the abundance fitness is -0.107 ± 0.067.
With S40I, the abundance fitness was -0.687 ± 0.21.
S40W: the abundance fitness was -0.989 ± 0.15.
Turning to S40H, the abundance fitness is -0.115 ± 0.15.
As for S40L, the abundance fitness is -0.538 ± 0.083.
As for S40D, the abundance fitness was -0.626 ± 0.14.
As for S40V, the figure is -0.641 ± 0.088; as for S40A, -0.382 ± 0.088; as for S40N, -0.135 ± 0.15.
With S40F, the abundance fitness was -0.908 ± 0.12.
Regarding S40E, the abundance fitness was -0.789 ± 0.13.
On to S40Y, for which the abundance fitness is -0.862 ± 0.21.
On to S40P, for which the abundance fitness is -0.793 ± 0.15.
In the case of S40Q, the abundance fitness was -0.622 ± 0.18.
With S40K, the abundance fitness was -0.076 ± 0.13.
E30C: the abundance fitness is -0.265 ± 0.12.
In the case of E30M, the abundance fitness was -0.278 ± 0.19.
As for E30W, the abundance fitness was -0.503 ± 0.13.
As for E30R, the figure is -0.285 ± 0.085; as for E30T, -0.293 ± 0.12.
With E30G, the abundance fitness was -0.21 ± 0.063.
Turning to E30Y, the abundance fitness is -0.362 ± 0.17.
As for E30H, the abundance fitness was -0.247 ± 0.13.
Consider E30F, for which the abundance fitness was -0.45 ± 0.18.
Take E30K: the abundance fitness is -0.248 ± 0.15.
Consider E30V, for which the abundance fitness was -0.17 ± 0.079.
Turning to E30D, the abundance fitness is -0.087 ± 0.12.
E30L: the abundance fitness was -0.601 ± 0.12.
On to E30Q, for which the abundance fitness is -0.161 ± 0.15.
On to E30P, for which the abundance fitness is -0.752 ± 0.24.
With E30I, the abundance fitness is -0.586 ± 0.21.
On to E30A, for which the abundance fitness is -0.115 ± 0.087.
In the case of T43A, the abundance fitness is -0.617 ± 0.11.
With T43Y, the abundance fitness is -0.85 ± 0.2.
The result for T43W reads -1.1 ± 0.18; that for T43M, -0.766 ± 0.17; that for T43G, -0.658 ± 0.063.
The result for T43E reads -0.643 ± 0.13; that for T43F, -0.957 ± 0.26; that for T43S, -0.101 ± 0.088.
Turning to T43K, the abundance fitness is -0.698 ± 0.16.
For the variant T43V, the abundance fitness was -0.854 ± 0.097.
As for T43H, the abundance fitness is -0.622 ± 0.24.
As for T43N, the abundance fitness is -0.277 ± 0.21.
As to T43R, the abundance fitness was -0.624 ± 0.085.
As to T43C, the abundance fitness is -0.949 ± 0.25.
The result for T43I reads -0.941 ± 0.26.
With T43D, the abundance fitness was -0.446 ± 0.12.
T43L: the abundance fitness was -0.831 ± 0.11.
Regarding T43P, the abundance fitness is -0.909 ± 0.16.

(Values after the Human Domainome abundance scans (Beltran et al. 2025).)
